5 molecules from US10072073 can be followed below.

The term Kd denotes the free concentration of one partner at which half of the binding sites on the other are occupied at equilibrium, for simple one-to-one binding. Broadly, the koff is the rate constant with which the complex falls apart. Low readings indicate slow dissociation, high ones fast dissociation. For orientation: kon means the rate constant with which the complex forms.

Where a chain is given by its changes, count along the chain named.

Assay [1] has as its target CD55 (UniProt P08174). The assay is described as follows: indirect immunofluorescence flow cytometry on H69 lung tumour cells, mAb 5 µg/ml.
Chain of UniProt P08174 (P08174 35-353 limits assumed): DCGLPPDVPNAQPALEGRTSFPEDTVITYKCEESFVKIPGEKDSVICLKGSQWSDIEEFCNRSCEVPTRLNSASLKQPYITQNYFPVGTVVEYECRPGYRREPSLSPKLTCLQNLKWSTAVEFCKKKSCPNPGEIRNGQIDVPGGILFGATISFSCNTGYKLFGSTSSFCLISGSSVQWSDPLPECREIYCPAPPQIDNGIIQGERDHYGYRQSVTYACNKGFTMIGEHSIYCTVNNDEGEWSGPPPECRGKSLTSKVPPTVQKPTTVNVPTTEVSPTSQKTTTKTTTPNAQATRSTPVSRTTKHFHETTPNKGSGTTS
Assay [2] concerns the target CD55 (UniProt P08174). The assay is described as follows: indirect immunofluorescence flow cytometry on AGS gastric tumour cells, mAb 5 µg/ml.
The target of assay [3] is CD55 (UniProt P08174). Kind of assay: indirect immunofluorescence flow cytometry on MCF7 breast tumour cells, mAb 5 µg/ml. (In general: Flow cytometry measures light scatter and fluorescence of single cells or particles in a stream.)
Assay [4] deals with CD55 (UniProt P08174). The assay is described as follows: indirect immunofluorescence flow cytometry on ST16 gastric tumour cells, mAb 5 µg/ml.
Assay [5] concerns the target CD55 (UniProt P08174). The assay is described as follows: indirect immunofluorescence flow cytometry on MKN45 gastric tumour cells, mAb 5 µg/ml.
The target in assay [6] is CD55 (UniProt P08174). Kind of assay: indirect immunofluorescence flow cytometry on OAW42 ovarian tumour cells, mAb 5 µg/ml.
Assay [7] deals with CD55 (UniProt P08174). The assay is described as follows: indirect immunofluorescence flow cytometry on OVCAR3 ovarian tumour cells, mAb 5 µg/ml.
The target in assay [8] is CD55 (UniProt P08174). Kind of assay: indirect immunofluorescence flow cytometry on OVCAR4 ovarian tumour cells, mAb 5 µg/ml.
The target in assay [9] is CD55 (UniProt P08174). The assay is described as follows: indirect immunofluorescence flow cytometry on C170 colorectal tumour cells, mAb 5 µg/ml.
Assay [10] has as its target CD55 (UniProt P08174). Kind of assay: indirect immunofluorescence flow cytometry on HT29 colorectal tumour cells, mAb 5 µg/ml.
Assay [11] addresses CD55 (UniProt P08174). The assay is described as follows: indirect immunofluorescence flow cytometry on OVCA433 ovarian tumour cells, mAb 5 µg/ml.
The target in assay [12] is CD55 (UniProt P08174). Kind of assay: indirect immunofluorescence flow cytometry on ASPC1 pancreatic tumour cells, mAb 5 µg/ml.
Assay [13] concerns the target CD55 (UniProt P08174). The assay is described as follows: indirect immunofluorescence flow cytometry on Panc1 pancreatic tumour cells, mAb 5 µg/ml.
The target in assay [14] is CD55 (UniProt P08174). The assay is described as follows: indirect immunofluorescence flow cytometry on MB-MDA-231 breast tumour cells, mAb 5 µg/ml.
Assay [15] deals with CD55 (UniProt P08174). The assay is described as follows: indirect immunofluorescence flow cytometry on Colo201 colorectal tumour cells, mAb 5 µg/ml.
Assay [16] deals with CD55 (UniProt P08174). The assay is described as follows: indirect immunofluorescence flow cytometry on Colo205 colorectal tumour cells, mAb 5 µg/ml.
The target in assay [17] is human class I histocompatibility antigens (HLA-A,B,C) (human). Kind of assay: indirect immunofluorescence flow cytometry on Colo205 cells; mouse IgG at 5 µg/ml [d].
Assay [18] shares this target. The assay is described as follows: indirect immunofluorescence flow cytometry on H69 lung tumour cells, mAb 1 µg/ml.
For assay [19] the target is unchanged. Kind of assay: indirect immunofluorescence flow cytometry on AGS gastric tumour cells, mAb 1 µg/ml.
The target is the same in assay [20]. The assay is described as follows: indirect immunofluorescence flow cytometry on MCF7 breast tumour cells, mAb 1 µg/ml.
Assay [21] shares this target. Kind of assay: indirect immunofluorescence flow cytometry on ST16 gastric tumour cells, mAb 1 µg/ml.
Assay [22] has the same target. Kind of assay: indirect immunofluorescence flow cytometry on DU4475 breast tumour cells, mAb 1 µg/ml.
The target is the same in assay [23]. Kind of assay: indirect immunofluorescence flow cytometry on MKN45 gastric tumour cells, mAb 1 µg/ml.
Assay [24] has the same target. The assay is described as follows: indirect immunofluorescence flow cytometry on OAW42 ovarian tumour cells, mAb 1 µg/ml.
Assay [25] has the same target. The assay is described as follows: indirect immunofluorescence flow cytometry on OVCAR3 ovarian tumour cells, mAb 1 µg/ml.
For assay [26] the target is unchanged. The assay is described as follows: indirect immunofluorescence flow cytometry on OVCAR4 ovarian tumour cells, mAb 1 µg/ml.
Assay [27] has the same target. Kind of assay: indirect immunofluorescence flow cytometry on C170 colorectal tumour cells, mAb 1 µg/ml.
The target is the same in assay [28]. The assay is described as follows: indirect immunofluorescence flow cytometry on HT29 colorectal tumour cells, mAb 1 µg/ml.
The target is the same in assay [29]. Kind of assay: indirect immunofluorescence flow cytometry on OVCA433 ovarian tumour cells, mAb 1 µg/ml.
For assay [30] the target is unchanged. Kind of assay: indirect immunofluorescence flow cytometry on ASPC1 pancreatic tumour cells, mAb 1 µg/ml.
The target is the same in assay [31]. Kind of assay: indirect immunofluorescence flow cytometry on Panc1 pancreatic tumour cells, mAb 1 µg/ml.
Assay [32] has the same target. The assay is described as follows: indirect immunofluorescence flow cytometry on MB-MDA-231 breast tumour cells, mAb 1 µg/ml.
Assay [33] has the same target. Kind of assay: indirect immunofluorescence flow cytometry on Colo201 colorectal tumour cells, mAb 1 µg/ml.
Assay [34] shares this target. The assay is described as follows: indirect immunofluorescence flow cytometry on Colo205 colorectal tumour cells, mAb 1 µg/ml.
Assay [35] has the same target. Kind of assay: indirect immunofluorescence flow cytometry on Colo205 cells; W6/32 at 5 µg/ml [c].
The next assay addresses Polyvalent Le^a-HSA. Kind of assay: SPR (Biacore X), polyvalent Le^a-HSA coupled to CM5 chip, mAb in flow. A general note: SPR reads the build-up and loss of mass on a sensor chip optically.

For the molecule 791T/36 (antibody), the Gm value in the assay with CD55 [1] was 28.1 Gm; in the assay with CD55 [2], 1880 Gm; in the assay with CD55 [3] it was 461 Gm; in the assay with CD55 [4] it was 903 Gm; with CD55 [5], 231 Gm; with CD55 [6], 401 Gm. In addition, the Gm value with CD55 [7] came to 412 Gm; with CD55 [8], 328 Gm; with CD55 [9], 858 Gm; with CD55 [10], 916 Gm; in the assay with CD55 [11], 686 Gm; with CD55 [12] it was 7010 Gm. The Gm value with CD55 [13] turned out to be 472 Gm; with CD55 [14] it was 1160 Gm; in the assay with CD55 [15] it was 22.3 Gm; in the assay with CD55 [16], 44.4 Gm.

The molecule IgG Isotype control (antibody) had a Gm in assay [17] of 25.4.

Take W6/32 (antibody): the Gm value in [18] stood at 109 Gm; in assay [19], 1560 Gm; in assay [20] it was 515 Gm; in [21], 33.5 Gm; in assay [22], 1360 Gm; in assay [23], 15.4 Gm. Besides, the Gm value in assay [24] was determined as 318 Gm; in assay [25] it was 633 Gm; in assay [26] it was 16.4 Gm; in assay [27], 16.5 Gm; in assay [28], 1160 Gm; in [29] it was 6790 Gm. Moreover, the Gm value amounted to 1780 Gm in assay [30]; 20.1 Gm in assay [31]; 758 Gm in [32]; 603 Gm in assay [33]; 1300 Gm in assay [34]. Further, in assay [35], the Gm was 2600.

B1: FG88.2 mAb (antibody, V domains shown)
VH: EVKLEESGGGLVQPGGSMKLSCAASGFTFSDAWMNWVRQSPEKGLEWVAEIRSKVINPAIYYAESVKERFTILRDDSKSSVYLQMNSLRAEDTGIYYCSRSTMITTRDPSRYFDVWGAGTTVTVSS
VL: DIQMTQSPTSLSASVGETVTITCRTSENIHNFLTWYQQKQGKSPQVLVYNAKTLPDGVPSRFSGSGSGTQYSLKINSLQPEDFGTYYCQHFWSSPWTFGGGTKLEIKR
As for B1, in the assay with Polyvalent Le^a-HSA, the Kd came out at 0.63 nM, the koff was determined as 0.000118 s⁻¹ and the kon was 190000 M⁻¹ s⁻¹.

B2: FG88.7 mAb (antibody, V domains shown)
VH: B1 VH with A23V, V55A, E68G
VL: B1 VL with G68E
In the assay with Polyvalent Le^a-HSA, B2 showed a Kd of 0.34 nM, a koff of 5.8e-05 s⁻¹ and a kon of 170000 M⁻¹ s⁻¹.
